# Results published in US20190142860A1, “NUCLEIC ACID BASED TIA-1 INHIBITORS” (Aquinnah Pharmaceuticals, Inc., priority 2015, published 2019).
# Assays:
# [1] = biological target: Nucleolysin TIA-1 (endogenous mouse TIA1) (mouse) (UniProt P52912); assay: TIA1 IP-MS, tau KO 2 cortex
# [2] = biological target: Nucleolysin TIA-1 (endogenous mouse TIA1) (mouse) (UniProt P52912); assay: TIA1 IP-MS, tau KO 3 cortex
# [3] = biological target: Nucleolysin TIA-1 (endogenous mouse TIA1) (mouse) (UniProt P52912); assay: TIA1 IP-MS, WT1 cortex
# [4] = biological target: Nucleolysin TIA-1 (endogenous mouse TIA1) (mouse) (UniProt P52912); assay: TIA1 IP-MS, WT3 cortex
# [5] = biological target: Nucleolysin TIA-1 (endogenous mouse TIA1) (mouse) (UniProt P52912); assay: TIA1 IP-MS, tau KO 1 cortex
# [6] = biological target: Nucleolysin TIA-1 (endogenous mouse TIA1) (mouse) (UniProt P52912); assay: TIA1 IP-MS, WT2 cortex
# UniProt P52912, sequence (P52912 whole entry): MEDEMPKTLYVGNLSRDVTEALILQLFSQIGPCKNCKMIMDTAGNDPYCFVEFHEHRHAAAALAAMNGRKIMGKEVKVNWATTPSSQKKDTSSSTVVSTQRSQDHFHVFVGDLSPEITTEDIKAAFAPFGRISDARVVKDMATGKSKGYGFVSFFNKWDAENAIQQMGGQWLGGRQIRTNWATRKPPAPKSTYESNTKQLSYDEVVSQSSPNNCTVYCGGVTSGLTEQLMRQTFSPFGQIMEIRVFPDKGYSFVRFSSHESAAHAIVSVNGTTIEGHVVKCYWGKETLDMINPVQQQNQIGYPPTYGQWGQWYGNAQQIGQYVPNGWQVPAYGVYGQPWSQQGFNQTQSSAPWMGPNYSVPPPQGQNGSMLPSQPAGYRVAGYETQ
Substance,total ion current (normalized to TIA1 = 1000) [1],total ion current (normalized to TIA1 = 1000) [2],total ion current (normalized to TIA1 = 1000) [3],total ion current (normalized to TIA1 = 1000) [4],total ion current (normalized to TIA1 = 1000) [5],total ion current (normalized to TIA1 = 1000) [6]
Isoform 2 of Hepatoma-derived growth factor-related protein 2 (from UniProt Q3UMU9 1-667),97.1,0,0,0,0,282
Isoform 2 of Heterogeneous nuclear ribonucleoprotein F (from UniProt Q9Z2X1 1-395),39.6,0,0,48.2,0,42.5
Isoform 2 of Heterogeneous nuclear ribonucleoprotein Q (from UniProt Q7TMK9 2-562),48.5,0,14.7,0,19.8,249
Isoform 2 of NAD-dependent protein deacetylase sirtuin-2 (from UniProt Q8VDQ8 1-352),0,0,0,48.2,0,175
Isoform 2 of Paraspeckle component 1 (from UniProt Q8R326 1-466),0,239,0,0,0,98.3
Isoform 2 of Phosphatidylinositol-binding clathrin assembly protein (from UniProt Q7M6Y3 2-597),31.4,0,0,0,0,20.1
Isoform 2 of Plasminogen activator inhibitor 1 RNA-binding protein (from UniProt Q9CY58 1-392),99.8,0,0,0,0,136
Isoform 2 of Septin-4 (from UniProt P28661 1-459),52.7,0,0,75.6,0,94.7
Isoform 2 of Sideroflexin-3 (from UniProt Q91V61 1-288),43,0,0,0,0,46.1
Isoform B of AP-2 complex subunit alpha-1 (from UniProt P17426 1-955),248,0,0,68.8,0,159
Isoform Beta-II of Protein kinase C beta type (from UniProt P68404 2-673),13,0,0,0,0,148
"Isoform Cytoplasmic of Fumarate hydratase, mitochondrial (from UniProt P97807 1-467)",49.2,0,0,0,0,57.7
Isoform Glt-1A of Excitatory amino acid transporter 2 (from UniProt P43006 1-569),96.4,0,0,298,0,187
Isoform I of Septin-6 (from UniProt Q9R1T4 2-427),35.6,0,0,0,0,53.3
Isoform Mt-VDAC1 of Voltage-dependent anion-selective channel protein 1 (from UniProt Q60932 2-283),0,0,0,101,0,184
"Isovaleryl-CoA dehydrogenase, mitochondrial (from UniProt Q9JHI5 31-424)",0,0,7.28,0,5.22,0
Ketimine reductase mu-crystallin (from UniProt O54983 1-313),0,0,8.5,0,0,0

# Other lines, results leading:
total ion current (normalized to TIA1 = 1000) [1],total ion current (normalized to TIA1 = 1000) [2],total ion current (normalized to TIA1 = 1000) [3],total ion current (normalized to TIA1 = 1000) [4],total ion current (normalized to TIA1 = 1000) [5],total ion current (normalized to TIA1 = 1000) [6],Substance
59.6,0,0,137,0,37.8,Isoform 2 of Homer protein homolog 1 (from UniProt Q9Z2Y3 1-370)
59,0,0,37.6,0,64.7,Isoform 2 of MICOS complex subunit Mic60 (from UniProt Q8CAQ8 34-746)
91.6,0,0,8.56,0,98.7,Isoform 2 of Protein-L-isoaspartate(D-aspartate)-O-methyltransferase (from UniProt P23506 2-228)
21.5,0,0,0,0,36.6,Isoform 2 of Sarcoplasmic/endoplasmic reticulum calcium ATPase 2 (from UniProt O55143 1-998)
0,0,0,0,0,269,Isoform 2 of Sodium-driven chloride bicarbonate exchanger (from UniProt Q5DTL9 1-1088)
0,0,0,0,0,48.2,Isoform 4 of Phosphatase and actin regulator 1 (from UniProt Q2M3X8 1-649)
13,0,0,240,0,108,Isoform A1-I of V-type proton ATPase 116 kDa subunit a isoform 1 (from UniProt Q9Z1G4 1-838)
190,0,0,515,0,372,Isoform A of Cytosolic acyl coenzyme A thioester hydrolase (from UniProt Q91V12 1-338)
891,0,0,722,0,1130,Isoform M1 of Pyruvate kinase PKM (from UniProt P52480 1-531)
